Measured values taken from article PMC8962251 (2022).

Biological target: SARS-CoV (2002) S1S2-His trimer (SARS-CoV (2002))
Test: SPR

Q: Which Kd does the source give for HDFWWEYDKKNDTWTRRRR (designed binder) [CVRBDL-3_3] here?
A: ~41 mM
